Our source for the avidity, fold over TF1 values is patent US20110020273A1.

This assay has as its target fusion protein containing the A3B3 domain of CEA (UniProt P06731). Description: competitive ELISA against HRP-conjugated hMN-14 IgG (1 nM). Background: In an ELISA, binding on a coated surface is turned into a signal by an enzyme label.

fusion protein containing the A3B3 domain of CEA, sequence (P06731 499-676): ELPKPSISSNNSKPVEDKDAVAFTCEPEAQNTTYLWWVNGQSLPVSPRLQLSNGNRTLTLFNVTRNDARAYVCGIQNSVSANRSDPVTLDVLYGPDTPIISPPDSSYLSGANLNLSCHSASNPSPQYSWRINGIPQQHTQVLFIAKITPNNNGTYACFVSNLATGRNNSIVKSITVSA

TF2 (bispecific antibody) registered an avidity, fold over TF1 of 2 fold.
